From US20230272119A1 (MARENGO THERAPEUTICS, published 2023) come the findings set out here.

Test [1] addresses T1, α-IL12β heavy-LgBiT (SEQ ID NO: 161).
T1 construct: VH-CH1-linker-LgBiT; germline VH3-33*01
In words: NanoBiT, HC-LgBiT:LC-SmBiT:competing LC 1:1:1; competing kappa LC m9 (SEQ ID NO: 100).

For test [2] the target is unchanged. Briefly: NanoBiT, HC-LgBiT:LC-SmBiT:competing LC 1:1:1; competing kappa LC m18 (SEQ ID NO: 109).
For test [3] the target is unchanged. In words: NanoBiT, HC-LgBiT:LC-SmBiT:competing LC 1:1:1; competing kappa LC m6 (SEQ ID NO: 97).
The target is the same in test [4]. Briefly: NanoBiT, HC-LgBiT:LC-SmBiT:competing LC 1:1:1; competing kappa LC m12 (SEQ ID NO: 103).
Test [5] has the same target. Briefly: NanoBiT, HC-LgBiT:LC-SmBiT:competing LC 1:1:1; competing kappa LC m15 (SEQ ID NO: 106).
Test [6] addresses T2, α-CSF2 heavy-LgBiT (SEQ ID NO: 101).
T2 construct: VH-CH1-linker-LgBiT; germline VH1-3*01
In words: NanoBiT, HC-LgBiT:LC-SmBiT:competing LC 1:1:1; competing lambda LC m48 (SEQ ID NO: 139).

The target is the same in test [7]. Briefly: NanoBiT, HC-LgBiT:LC-SmBiT:competing LC 1:1:1; competing lambda LC m66 (SEQ ID NO: 157).
Test [8] has the same target. In words: NanoBiT, HC-LgBiT:LC-SmBiT:competing LC 1:1:1; competing lambda LC m69 (SEQ ID NO: 160).
The target is the same in test [9]. In words: NanoBiT, HC-LgBiT:LC-SmBiT:competing LC 1:1:1; competing lambda LC m72 (SEQ ID NO: 163).
The target of test [10] is T3, α-TRAILR2 heavy-LgBiT (SEQ ID NO: 146).
T3 construct: VH-CH1-linker-LgBiT; germline VH3-20*01
In words: NanoBiT, HC-LgBiT:LC-SmBiT:competing LC 1:1:1; competing kappa LC m24 (SEQ ID NO: 115).

Test [11] has the same target. Briefly: NanoBiT, HC-LgBiT:LC-SmBiT:competing LC 1:1:1; competing kappa LC m18 (SEQ ID NO: 109).
For test [12] the target is unchanged. In words: NanoBiT, HC-LgBiT:LC-SmBiT:competing LC 1:1:1; competing kappa LC m6 (SEQ ID NO: 97).
The target is the same in test [13]. Briefly: NanoBiT, HC-LgBiT:LC-SmBiT:competing LC 1:1:1; competing kappa LC m21 (SEQ ID NO: 112).
Test [14] shares this target. Briefly: NanoBiT, HC-LgBiT:LC-SmBiT:competing LC 1:1:1; competing kappa LC m12 (SEQ ID NO: 103).
For test [15] the target is unchanged. In words: NanoBiT, HC-LgBiT:LC-SmBiT:competing LC 1:1:1; competing kappa LC m15 (SEQ ID NO: 106).
Test [16] has the same target. In words: NanoBiT, HC-LgBiT:LC-SmBiT:competing LC 1:1:1; competing kappa LC m42 (SEQ ID NO: 133).
The target of test [17] is T4, α-TNFR10β heavy-hCHIg_Hole_Cys (SEQ ID NO: 177).
T4 construct: full heavy chain, human Fc hole; Fab analysed after papain cleavage in the MS assay; also called α-TRAILR2 arm first chain; HCP1 of multispecific molecules 4, 6, 12
In words: intact MS of papain-cleaved multispecific molecule 4; Fab of this pairing observed (observed mass, Da).

The target of test [18] is T5, α-CTLA4 heavy-hCHIg_Knob_Cys-GH_scFv (SEQ ID NO: 169).
T5 construct: full heavy chain, human Fc knob, C-terminal scFv; germline VH3-30*01; also called HCP2 of multispecific molecule 12
In words: KappaSelect resin analysis of multispecific molecule 12, reduced gel; said to agree with lambda light chain pairing with the kappa heavy chain in molecule 4.

For test [19], the target named is T6, α-CTLA4 heavy-hCHIg_Knob_Cys (SEQ ID NO: 168) (Homo sapiens (Human), UniProt P0DOX5 1-449 = IgG part).
T6 construct: full heavy chain, human Fc knob; Fab analysed after papain cleavage in the MS assay; germline VH3-30*01; also called HCP2 of multispecific molecules 3, 4, 5, 9
Briefly: intact MS of papain-cleaved multispecific molecule 4; mispaired Fab observed (observed mass, Da).

Test [20] concerns the target T7, α-CD221 heavy-hCHIg_Hole_Cys (SEQ ID NO: 180).
T7 construct: full heavy chain, human Fc hole; Fab analysed after papain cleavage in the MS assay; germline VH1-69*01; also called HCP1 of multispecific molecule 5
In words: intact MS of papain-cleaved multispecific molecule 5; Fab of this pairing observed (observed mass, Da).

Test [21] deals with T8, α-activin receptors heavy-LgBiT (SEQ ID NO: 149).
T8 construct: VH-CH1-linker-LgBiT; germline VH1-46*01
In words: NanoBiT, HC-LgBiT:LC-SmBiT:competing LC 1:1:1; competing kappa LC m33 (SEQ ID NO: 124).

Test [22] addresses T8, α-activin receptors heavy-LgBiT (SEQ ID …). In words: NanoBiT, HC-LgBiT:LC-SmBiT:competing LC 1:1:1; competing kappa LC m9 (SEQ ID NO: 100).
The target is the same in test [23]. Briefly: NanoBiT, HC-LgBiT:LC-SmBiT:competing LC 1:1:1; competing kappa LC m24 (SEQ ID NO: 115).
Test [24] has the same target. Briefly: NanoBiT, HC-LgBiT:LC-SmBiT:competing LC 1:1:1; competing kappa LC m6 (SEQ ID NO: 97).
For test [25] the target is unchanged. In words: NanoBiT, HC-LgBiT:LC-SmBiT:competing LC 1:1:1; competing kappa LC m12 (SEQ ID NO: 103).
The target is the same in test [26]. In words: NanoBiT, HC-LgBiT:LC-SmBiT:competing LC 1:1:1; competing kappa LC m27 (SEQ ID NO: 118).
Test [27] has the same target. Briefly: NanoBiT, HC-LgBiT:LC-SmBiT:competing LC 1:1:1; competing kappa LC m42 (SEQ ID NO: 133).

B1: α-IL12β light-SmBiT (SEQ ID NO: 162) (other)
light: QSVLTQPPSVSGAPGQRVTISCSGSRSNIGSNTVKWYQQLPGTAPKLLIYYNDQRPSGVPDRFSGSKSGTSASLAITGLQAEDEADYYCQSYDRYTHPALLFGTGTKVTVLGQPKANPTVTLFPPSSEELQANKATLVCLISDFYPGAVTVAWKADGSPVKAGVETTKPSKQSNNKYAASSYLSLTPEQWKSHRSYSCQVTHEGSTVEKTVAPTECSGSSGGGGSGGGGSSGGVTGYRLFEEIL
notes: lambda light chain-linker-SmBiT; germline Vl1-44*01
On to B1, for which the Percent pairing was found to be 100% in [1]; 80% in test [2]; 100% in [3]; 100% in test [4]; 100% in test [5].

B2: α-CSF2 light-SmBiT (SEQ ID NO: 102) (other)
light: EIVLTQSPATLSVSPGERATLSCRASQSVGTNVAWYQQKPGQAPRVLIYSTSSRATGITDRFSGSGSGTDFTLTISRLEPEDFAVYYCQQFNKSPLTFGGGTKVEIKRTVAAPSVFIFPPSDEQLKSGTASVVCLLNNFYPREAKVQWKVDNALQSGNSQESVTEQDSKDSTYSLSSTLTLSKADYEKHKVYACEVTHQGLSSPVTKSFNRGECGSSGGGGSGGGGSSGGVTGYRLFEEIL
notes: kappa light chain-linker-SmBiT; germline Vk3D-20*01
For B2, the Percent pairing in test [6] turned out to be 100%; in test [7] it was 93%; in [8], 98%; in test [9], 83%.

B3: α-TRAILR2 light-SmBiT (SEQ ID NO: 147) (other)
light: SSELTQDPAVSVALGQTVRITCQGDSLRSYYASWYQQKPGQAPVLVIYGKNNRPSGIPDRFSGSSSGNTASLTITGAQAEDEADYYCNSRDSSGNHVVFGGGTKLTVLGQPKANPTVTLFPPSSEELQANKATLVCLISDFYPGAVTVAWKADGSPVKAGVETTKPSKQSNNKYAASSYLSLTPEQWKSHRSYSCQVTHEGSTVEKTVAPTECSGSSGGGGSGGGGSSGGVTGYRLFEEIL
notes: lambda light chain-linker-SmBiT; germline Vl3-19*01
For B3, the Percent pairing in [10] turned out to be 81%; in test [11] it was 100%; in test [12], 100%; in [13] it was 100%; in test [14], 84%; in test [15], 77%. The molecule also had a Percent pairing in [16] of 100%.

B4: α-TRAILR2 light (SEQ ID NO: 148) (other)
light: SSELTQDPAVSVALGQTVRITCQGDSLRSYYASWYQQKPGQAPVLVIYGKNNRPSGIPDRFSGSSSGNTASLTITGAQAEDEADYYCNSRDSSGNHVVFGGGTKLTVLGQPKANPTVTLFPPSSEELQANKATLVCLISDFYPGAVTVAWKADGSPVKAGVETTKPSKQSNNKYAASSYLSLTPEQWKSHRSYSCQVTHEGSTVEKTVAPTECS
notes: unmodified lambda light chain; germline Vl3-19*01; also called LLCP of multispecific molecules 4, 6, 12
For B4, the binding result in [17], in test [18] and in test [19] was “binds” in each case.

B5: α-CD221 light (SEQ ID NO: 136) (other)
light: SSELTQDPAVSVALGQTVRITCQGDSLRSYYATWYQQKPGQAPILVIYGENKRPSGIPDRFSGSSSGNTASLTITGAQAEDEADYYCKSRDGSGQHLVFGGGTKLTVLGQPKANPTVTLFPPSSEELQANKATLVCLISDFYPGAVTVAWKADGSPVKAGVETTKPSKQSNNKYAASSYLSLTPEQWKSHRSYSCQVTHEGSTVEKTVAPTECS
notes: unmodified lambda light chain; germline Vl3-19*01; also called LLCP of multispecific molecule 5
Regarding B5, the binding result in test [20] is given as “binds”.

B6: α-activin receptors light-SmBiT (SEQ ID NO: 150) (other)
light: QSALTQPASVSGSPGQSITISCTGTSSDVGSYNYVNWYQQHPGKAPKLMIYGVSKRPSGVSNRFSGSKSGNTASLTISGLQAEDEADYYCGTFAGGSYYGVFGGGTKLTVLGQPKANPTVTLFPPSSEELQANKATLVCLISDFYPGAVTVAWKADGSPVKAGVETTKPSKQSNNKYAASSYLSLTPEQWKSHRSYSCQVTHEGSTVEKTVAPTECSGSSGGGGSGGGGSSGGVTGYRLFEEIL
notes: lambda light chain-linker-SmBiT; germline Vl2-14*01
As for B6, the Percent pairing in [21] came out at 100%; in test [22], 90%; in [23] it was 75%; in [24], 90%; in test [25], 81%; in test [26], 79%. In addition, in test [27], the Percent pairing stood at 87%.
